Measurements: paper PMC12658102 (2025)
Values belong to the molecule of their own block, whether it stands above or below them.

Experiments:
[1] = molecular target: TDP-43 C-terminal domain, wild type (human); assay: AUC; sedimentation velocity, 25 °C, 50,000 rpm, absorbance at 280 nm, solution without salt; WT CTD at 33, 58 and 107 µM; c(s) analysis and global Lamm equation modelling of the 58 and 107 µM data (SEDPHAT), monomer-dimer-tetramer model (steps: dimer to monomers; tetramer to dimers); monomer-tetramer model fits similarly
TDP-43 CTD F316A = assay: NMR chemical shift perturbation (15N CSP) as a function of protein concentration; conditions: pH 6.1, without salt; 90 μM vs 20 μM protein; read off a plot
TDP-43 CTD L330A = assay: as above; conditions: pH 6.1, without salt; 90 μM vs 20 μM protein; read off a plot
TDP-43 CTD M323A = assay: as above; conditions: pH 6.1, without salt; 90 μM vs 20 μM protein; read off a plot
TDP-43 CTD M339A = assay: as above; conditions: pH 6.1, without salt; 90 μM vs 20 μM protein; read off a plot
TDP-43 CTD Q343A = assay: as above; conditions: pH 6.1, without salt; 90 μM vs 20 μM protein; read off a plot
TDP-43 CTD S317A = assay: as above; conditions: pH 6.1, without salt; 90 μM vs 20 μM protein; read off a plot
TDP-43 CTD S342A = assay: as above; conditions: pH 6.1, without salt; 90 μM vs 20 μM protein; read off a plot
[2] = molecular target: TDP-43 CTD S→E S305C cross-linked (human) (UniProt Q13148); assay: AUC; dimer-tetramer; conditions: domain or fragment
[3] = molecular target: TDP-43 CTD S→E S305C cross-linked (human) (UniProt Q13148); assay: AUC; tetramer-octamer; conditions: domain or fragment
[4] = molecular target: TDP-43 CTD S→E S317C cross-linked (human) (UniProt Q13148); assay: AUC; dimer-tetramer, global Lamm equation modeling; conditions: domain or fragment
[5] = molecular target: TDP-43 CTD S→E S317C cross-linked (human) (UniProt Q13148); assay: AUC; dimer-tetramer, isotherm fit (dimer concentration units); conditions: domain or fragment
[6] = molecular target: the molecule itself; assay: analytical ultracentrifugation (SEDPHAT)

Molecule: TDP-43 C-terminal domain, wild type (domain or fragment)
Kd,dim-tet (dimer-tetramer step) [1]: 2.7 µM | Kd,mon-dim (monomer-dimer step) [1]: 2400 µM | ceq (concentration for equal population of monomer and tetramer) [1]: 250 to 300 µM | stoichiometry N [1]: 4

Molecule: TDP-43 C-terminal domain, wild type F316A
ratio to parent (TDP-43 CTD F316A): 0.27

Molecule: TDP-43 C-terminal domain, wild type M323A
ratio to parent (TDP-43 CTD M323A): 0.19

Molecule: TDP-43 C-terminal domain, wild type M339A
ratio to parent (TDP-43 CTD M339A): 0.63

Molecule: TDP-43 C-terminal domain, wild type S342A
ratio to parent (TDP-43 CTD S342A): 1.1

Molecule: TDP-43 CTD S→E S305C cross-linked (from UniProt Q13148)
Kd [2]: 58 µM | Kd [3]: 4.7 µM

B1: TDP-43 CTD conserved region (peptide)
chain: NPAMMAAAQAALQSSWGMMGMLA
Kd [6]: 2400 µM

B2: TDP-43 dimer CTD conserved region (peptide)
chain: NPAMMAAAQAALQSSWGMMGMLA
Kd [6]: 2.7 µM

More lines, now with the values ahead:

ratio to parent (TDP-43 CTD L330A): 0.13
Molecule: TDP-43 C-terminal domain, wild type L330A

ratio to parent (TDP-43 CTD Q343A): 1.2
Molecule: TDP-43 C-terminal domain, wild type Q343A

ratio to parent (TDP-43 CTD S317A): 1.2
Molecule: TDP-43 C-terminal domain, wild type S317A

Kd [4]: 46 µM | Kd [5]: 45 µM
Molecule: TDP-43 CTD S→E S317C cross-linked (from UniProt Q13148)
